Changes are numbered by the printed parent chain.
How the values were obtained:
[1] = biological target: SETMAR DNA-binding domain, residues 329 to 440 (C381R) (I359M) (L423M) (human); experiment: crystal structure; SETMAR DBD 329-440 (C381R, I359M, L423M) with brominated 25-mer TIR DNA duplex, protein:DNA 1:1.2, 50 mM Hepes pH 7.5, 150 mM NaCl, 1 mM DTT; hanging drops at 20 °C, 0.1 M magnesium formate, 15% PEG3350; 2.37 Å
SETMAR DBD C381R = biological target: T1, SETMAR DBD C381R (Homo sapiens, UniProt Q53H47 342-453, C394R); experiment: X-ray crystallography; 2.37 A; FA and competition: 50 mM Hepes pH 7.0, 150 mM NaCl, 1 mM DTT; temperature not stated. Crystals: 50 mM Hepes pH 7.5, 150 mM NaCl, 1 mM DTT; 0.1 M Mg formate, 15% PEG3350, 20 C; details: protein: recombinant; tags: none (His-SUMO removed); chain copies: 2; 25 bp, 3' overhang 1 nt on each strand (A and T)
T1 sequence: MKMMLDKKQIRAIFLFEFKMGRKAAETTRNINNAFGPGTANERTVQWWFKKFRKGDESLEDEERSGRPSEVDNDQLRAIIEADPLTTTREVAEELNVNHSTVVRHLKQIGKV

SETMAR full-length WT [2] = biological target: T2, SETMAR full-length WT (Homo sapiens, UniProt Q53H47 14-684); experiment: fluorescence anisotropy; 10 nM probe; mutant comparison series; FA and competition: 50 mM Hepes pH 7.0, 150 mM NaCl, 1 mM DTT; temperature not stated. Crystals: 50 mM Hepes pH 7.5, 150 mM NaCl, 1 mM DTT; 0.1 M Mg formate, 15% PEG3350, 20 C; details: protein: recombinant; chain copies: 2; label: 5' rhodamine (C6 amino) on strand 2; blunt
T2 sequence: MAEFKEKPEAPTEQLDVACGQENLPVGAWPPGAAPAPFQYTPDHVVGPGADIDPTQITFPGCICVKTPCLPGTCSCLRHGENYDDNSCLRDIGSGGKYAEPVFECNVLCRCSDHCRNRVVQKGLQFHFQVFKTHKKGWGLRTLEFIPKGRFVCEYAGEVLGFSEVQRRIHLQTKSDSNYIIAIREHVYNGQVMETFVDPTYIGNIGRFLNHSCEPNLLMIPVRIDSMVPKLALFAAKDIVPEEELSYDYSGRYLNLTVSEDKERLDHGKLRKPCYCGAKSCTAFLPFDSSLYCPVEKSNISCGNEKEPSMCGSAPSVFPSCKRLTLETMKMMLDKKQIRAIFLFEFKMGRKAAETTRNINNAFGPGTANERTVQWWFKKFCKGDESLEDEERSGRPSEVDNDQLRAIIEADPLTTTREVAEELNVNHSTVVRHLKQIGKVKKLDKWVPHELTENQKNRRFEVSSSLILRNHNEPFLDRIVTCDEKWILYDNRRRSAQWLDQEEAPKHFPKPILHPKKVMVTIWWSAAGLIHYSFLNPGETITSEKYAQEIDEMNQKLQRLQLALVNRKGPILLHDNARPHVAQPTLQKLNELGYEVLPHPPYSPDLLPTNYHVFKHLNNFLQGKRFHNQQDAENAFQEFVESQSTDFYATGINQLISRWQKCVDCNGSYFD

SETMAR full-length WT [3] = biological target: T2, SETMAR full-length WT; experiment: fluorescence anisotropy; 20 nM probe; FA and competition: 50 mM Hepes pH 7.0, 150 mM NaCl, 1 mM DTT; temperature not stated. Crystals: 50 mM Hepes pH 7.5, 150 mM NaCl, 1 mM DTT; 0.1 M Mg formate, 15% PEG3350, 20 C; details: protein: recombinant; chain copies: 2; label: 5' rhodamine (C6 amino) on strand 2; blunt
SETMAR R371A = biological target: T3, SETMAR R371A (Homo sapiens, UniProt Q53H47 14-684, R384A); experiment: fluorescence anisotropy; 10 nM probe; FA and competition: 50 mM Hepes pH 7.0, 150 mM NaCl, 1 mM DTT; temperature not stated. Crystals: 50 mM Hepes pH 7.5, 150 mM NaCl, 1 mM DTT; 0.1 M Mg formate, 15% PEG3350, 20 C; details: protein: recombinant; chain copies: 2; label: 5' rhodamine (C6 amino) on strand 2; blunt
T3 sequence: T2 sequence with R371A

SETMAR S428A = biological target: T4, SETMAR S428A (Homo sapiens, UniProt Q53H47 14-684, S441A); experiment: as above; details: protein: recombinant; chain copies: 2; label: 5' rhodamine (C6 amino) on strand 2; blunt
T4 sequence: T2 sequence with S428A

SETMAR R432A = biological target: T5, SETMAR R432A (Homo sapiens, UniProt Q53H47 14-684, R445A); experiment: as above; details: protein: recombinant; chain copies: 2; label: 5' rhodamine (C6 amino) on strand 2; blunt
T5 sequence: T2 sequence with R432A

SETMAR full-length WT [4] = biological target: T2, SETMAR full-length WT; experiment: competition (fluorescence anisotropy); 300 nM protein, 20 nM probe; FA and competition: 50 mM Hepes pH 7.0, 150 mM NaCl, 1 mM DTT; temperature not stated. Crystals: 50 mM Hepes pH 7.5, 150 mM NaCl, 1 mM DTT; 0.1 M Mg formate, 15% PEG3350, 20 C; details: protein: recombinant; chain copies: 2; blunt
[5] = biological target: T6, SETMAR DBD C381R I359M L423M (SeMet) (Homo sapiens, UniProt Q53H47 342-453, I372M;C394R;L436M); experiment: X-ray crystallography; Se-SAD phasing, 2.66 A; FA and competition: 50 mM Hepes pH 7.0, 150 mM NaCl, 1 mM DTT; temperature not stated. Crystals: 50 mM Hepes pH 7.5, 150 mM NaCl, 1 mM DTT; 0.1 M Mg formate, 15% PEG3350, 20 C; details: protein: recombinant; tags: none (His-SUMO removed); chain copies: 2; 25 bp, 3' overhang 1 nt on each strand (A and T)
T6 sequence: T1 sequence with I31M, L95M

With “SETMAR DNA-binding domain, residues 329 to 440 (C381R) (I359M) (L423M) (domain or fragment)” the stoichiometry N [1] was 2.

B1: TIR crystallization duplex (dsDNA)
DNA 1: GGTTGGTGCAAAAGTAATTGCGGTTA
DNA 2: AACCGCAATTACTTTTGCACCAACCT
B1: binds (SETMAR DBD C381R).

B2: rhodamine Hsmar1 TIR probe (dsDNA)
DNA 1: TTAGGTTGGTGCAAAAGTAATTGCGGTT
DNA 2: AACCGCAATTACTTTTGCACCAACCTAA
In the case of B2, the Kd (SETMAR full-length WT [2]) is reported as 42 ± 5 nM, the Kd (SETMAR full-length WT [3]) is reported as 53 ± 4 nM and the Kd (SETMAR R371A) is reported as 521 ± 65 nM. The Kd (SETMAR S428A) was 485 ± 58 nM and the Kd (SETMAR R432A) was 302 ± 47 nM.

B3: Hsmar1 TIR without sequence-specific binding sites (dsDNA)
DNA 1: TTAGGTTAATATAAAAGTAATTGTGGTT
DNA 2: AACCACAATTACTTTTATATTAACCTAA
B3: no binding (SETMAR full-length WT [4]).

B4: Mos1 TIR (dsDNA)
DNA 1: TCAGGTGTACAAGTATGAAATGTCGTTT
DNA 2: AAACGACATTTCATACTTGTACACCTGA
B4: no binding (SETMAR full-length WT [4]).

B5: BrdU-substituted TIR crystallization duplex (dsDNA)
DNA 1: GGTTGGTGCAAAAGTAATTGCGGTTA
DNA 2: AACCGCAATTACTTTTGCACCAACCT
modifications: 5-bromodeoxyuridine replacing underlined Ts (positions not visible in text)
B5: binds [5].

From article PMC9062482, “Structural and genome-wide analyses suggest that transposon-derived protein SETMAR alters transcription and splicing”
